Reference: patent US20180118818A1

Assays:
[1] = target: DsRed (UniProt Q9U6Y8); assay: cell-based or functional assay
[2] = target: green fluorescent protein (GFP) (Aequorea-derived) [GFP: P42212]; assay: cell-based or functional assay

Chain of UniProt Q9U6Y8 (Q9U6Y8 whole entry): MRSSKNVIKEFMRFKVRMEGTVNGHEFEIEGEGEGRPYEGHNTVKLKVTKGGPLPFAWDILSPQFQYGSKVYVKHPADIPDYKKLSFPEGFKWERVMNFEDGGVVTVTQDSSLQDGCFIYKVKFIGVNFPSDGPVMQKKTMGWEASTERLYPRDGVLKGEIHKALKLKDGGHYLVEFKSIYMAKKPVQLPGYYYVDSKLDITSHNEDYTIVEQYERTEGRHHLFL

Row | Substance | % TagBFP+ given GFP+ or DsRed+ cells in ONL (+CAG-DsRed) [1] [%] | % Anti-TagBFP+ given GFP+ cells (CAG promoter for GFP, INL) [2] [%] | % Anti-TagBFP+ given GFP+ cells (CAG promoter for GFP, ONL) [2] [%] | % Anti-TagBFP+ given GFP+ cells (Rho promoter for GFP, ONL) [2] [%] | % GFP+ cells given Anti-TagBFP+ cells (CAG promoter for GFP, INL) [2] [%] | % GFP+ cells given Anti-TagBFP+ cells (CAG promoter for GFP, ONL) [2] [%] | % GFP+ cells given Anti-TagBFP+ cells (Rho promoter for GFP, ONL) [2] [%] | % TagBFP+ given GFP+ or DsRed+ cells in ONL (+CAG-GFP) [2] [%] | fold induction of the Flp-dependent luciferase reporter by GFP, 293T cells [2] [fold]
1 | dGBP1-TagBFP (destabilized GBP1 fused to TagBFP) (VHH) | 0 | 97 | 100 | 100 | 99 | 100 | 100 | 91 | 
2 | dGBP1x2-Flpo (Flp dependent on GFP, Flp-DOG) (VHH) |  |  |  |  |  |  |  |  | 636
